Measurements published in a protein production outcome set (Wang et al. 2014).

Assay: label from the status in PepcDB records
In the case of “MMAPPSQVQGRLSSSMNKSLALLTVTLLLGGCQSLIHKTPDGTPPVEDTAVETKAKPEKYGSFSEDSLYSLLVAELAGQRNRFDIALSNYVVQAQKTRDPGVSERAFRIAEYLGADQEALDTSLLWARSAPDNLDAQRAAAIQLARAGRYEESMVYMEKVLNGQGDTHFDFLALSAAETDPDTRAGLLQSFDHLLKKYPNNGQLLFGKALLLQQDGRPDEALTLLEDNSASRHEVAPLLLRSRLLQSMKRSDEALPLLKAGIKEHPDDKRVRLAYARLLVEQNRLDDAKAEFAGLVQQFPDDDDLRFSLALVCLEAQAWDEARIYLEELVERDSHVDAAHFNLGRLAEEQKDTARALDEYAQVGPGNDFLPAQLRQTDVLLKAGRVDEAAQRLDKARSEQPDYAIQLYLIEAEALSNNDQQEKAWQAIQEGLKQYPEDLNLLYTRSMLAEKRNDLAQMEKDLRFVIAREPDNAMALNALGYTLADRTTRYGEARELILKAHKLNPDDPAILDSMGWINYRQGKLADAERYLRQALQRYPDHEVAAHLGEVLWAQGRQGDARAIWREYLDKQPDSDVLRRTIKRLTGAETP”, the protein production is reported as “failed”. With “MMDAMTDPITFAATAAGRDAAHPLRDISFGEIGIATERKPDGTIYVRSTTTLTDYPVRITDRLHHFAETAPDRVFMAERNGEGGWRRISYAEMLRAAQTIASALIARGLSAERPVMILSGNSIDHAMVMFGALYAGVAMCPVSPPYSLVSKDYGKLRHIVGLLTPGLIFADDITAFAPAILATVPEDVELAATRGEVKGRKVTSLAELLATPEHPELAAKHEAIGHDTIAKFLLTSGSTGNPKAVINTQRMICANQVMIREAMAFLKDEPPVIVDWLPWNHTFGGNHNIGLTLFNGGSMYIDDGKPTPAGIASTIRNLREIAPTVYFNVPKGYESLLPVLREDQQLRKLFFSRLHAMFFSGASLAAHVWNGLDEVAVAETGARVPMLTGLGATETAPFFMSVTPQTSRSGHVGLPVPGNEAKLVPNNGKLEVRAKGPNITPGYWRAPELTDKAFDEEGFYKLNDALKPVDANDLSRGFDFDGRISEDFKLASGTWVSVGPLRAKFIAACASLVRDVVIAGLDRDYVTALAILDPDGCKLINATLPLEDLAGMAADHLIREAFRERFATLLTQATGSSNRVTRAVLLGEPLSIDKGEITDKGSVNQRAVLEYRASLIADLYADPPPAHVIALELEHHHHHH” the protein production was “not failed”. With “MMDSCIRIAGIIGESIVDGPGIRLVVFAQGCPHHCPGCHNPETHAYEGGKSVAIAEILQRLAMNPLLDGITLSGGEPFAQAAGFALLAQSARQRGFHVMTYSGYTYEELTASSEQNPAWALLLEQTDLLVDGPFQLAERNLLLPFRGSENQRVIDVQESLRQGKVVLASVLEHHHHHH” the protein production was “failed”. In the case of “MMDSTASRQDLLTAASMRFQNLIQWSGAVLLCALPLGVTLAATGGEPAAVTQVDIAPCLAAAAGDDMDKAKSACADVIDNEKTAKGDLIKALVARGALYARHDQVDRAIADDSRALSLDPTLADVFNARGELWLKKGDKPKAVQDFGAALKLDPNHEKAKANHKAMARELERIGAQMAVAGKPSFNCARAARAVEKAICGNRELADLDREIYGSHLRVIREAQSPAEARKIQREQDDFIARRNSGFGRPGYDLKKAMQDRLQQINGVDGY”, the protein production is reported as “failed”. In the case of “MMDVDHKTNLTLRKYFYTLKSMKFTSITYTLSAVLLLGFSIPLVFAQTPDSGLSADCQMPIPPNLNSVDHFLGMGHFQQDCKKDLSAAVAAFSQAIKLNPQAEEPYYHRANSYAAMGNYQAAVTDYTEVIRQNTGRLGFSTGAYWHRARAYEKLGEKQKAISDLTQLIGNNSSLNAEEYLFRANLYKELGNKESAIADYKIAEKLLQQYADGVFHTGMMDTRYEQMLDQVRNELSSMGVAVTVPKTTTGNILRTIAKTEVERALNLARLQSQHPTVKNFDAQLQDLYKQLANTQPQVESGVVKNLIANAAYEKIDDLKIERSQLLTKYTLDSPIIGVIDSQTSELESLIHRNKF”, the protein production is reported as “failed”. In the case of “MMEERANLMHMMKLSIKVLLQSALSLGRSLDADHAPLQQFFVVMEHCLKHGLKVKKSFIGQNKSFFGPLELVEKLCPEASDIATSVRNLPELKTAVGRGRAWLYLALMQKKLADYLKVLIDNKHLLSEFYEPEALMMEEEGMVIVGLLVGLNVLDANLCLKGEDLDSQVGVIDFSLYLKDVQDLDGGKEHERITDVLDQKNYVEELNRHLSCTVGDLQTKIDGLEKTNSKLQEELSAATDRICSLQEEQQQLREQNELIRERSEKSVEITKQDTKVELETYKQTRQGLDEMYSDVWKQLKEEKKVRLELEKELELQIGMKTEMEIAMKLLEKDTHEKQDTLVALRQQLEEVKAINLQMFHKAQNAESSLQQKNEAITSFEGKTNQVMSSMKQMEERLQHSERARQGAEERSHKLQQELGGRIGALQLQLSQLHEQCSSLEKELKSEKEQRQALQRELQHEKDTSSLLRMELQQVEGLKKELRELQDEKAELQKICEEQEQALQEMGLHLSQSKLKMEDIKEVNQALKGHAWLKDDEATHCRQCEKEFSISRRKHHCRNCGHIFCNTCSSNELALPSYPKPVRVCDSCHTLLLQRCSSTAS”, the protein production is reported as “not failed”. For “MMETTAGDTLQQFVTAPVRTATYKRLLYLLLAFPLGVAYFVAFTTGSSLGLGLAFTLVGLPVLLVTLVATTGAAGLEARLATVLLDQEVATPPSPRETLDSDDGYLAAVWRFATEPTTWTSVAVVLLKFVYGIVAFVVTITGTALVGTLLAAPFVYDDPGVNYQFGQYAVSTLPEAIGVATVGVAGIWILCNVINVVAAAGGLMTDAFLSVGRERAA”, the protein production was “failed”. For “MMGIMSDPITILDSSDSLSRLSSESVGRLVVHRKDDLDIFPVNFVLDYSAEQPRVYFRTAEGTKLFSVNLNSDVLFEVDRFDDAEGWSVVLKGNAYVVRDTEEARHADTLGLKPWLPTLKYNFVRIDVREVSGRAFVFGEEPERY”, the protein production was “not failed”. With “MMGRVAMLTGSRGLRYATVIALVAALVGGVYVLSSTGNKRTIVGYFTSAVGLYPGDQVRVLGVPVGEIDMIEPRSSDVKITMSVSKDVKVPVDVQAVIMSPNLVAARFIQLTPVYTGGAVLPDNGRIDLDRTAVPVEWDEVKEGLTRLAADLSPAAGELQGPLGAAINQAADTLDGNGDSLHNALRELAQVAGRLGDSRGDIFGTVKNLQVLVDALSESDEQIVQFAGHVASVSQVLADSSANLDQTLGTLNQALSDIRGFLRENNSTLIETVNQLNDFAQTLSDQSENIEQVLHVAGPGITNFYNIYDPAQGTLNGLLSIPNFANPVQFICGGSFDTAAGPSAPDYYRRAEICRERLGPVLRRLTVNYPPIMFHPLNTITAYKGQIIYDTPATEAKSETPVPELTWVPAGGGAPVGNPADLQSLLVPPAPGPAPAPPAPGAGPGEHGGGG” the protein production was “failed”. For “MMIARTLSIFIGTLLLATCSIPTRLNIPTIAITDHPKYKLLLILIDGLRADALEHGQAPQLARLASDGVHARWMTPSYPALTLPNAYTLITGLRPDHHGIVHNTMEDPLLGAFESERQEAISNGRWWGGEPIWVSAEHAGIRSATFLWPGSEASIAGTRPSRWYAYNKHISADTQITQALRWLNERGPDAPRLVILRFEQVNTAGDNFGPDSPQYAAAVNMIDSAIGRLIDSLRQHGKLTDTDVIVVSDQGIAPIPGDHAVPLERIVQLSDVHVVSDGQVLGITPLPGHESKVEAMVLGAHATYDCWRKQALPTHWHYGTHPRIPNIVCQMHEGWNALSAAQITKRNPLQMGGSSGFDPMLPSMRAVFLANGPSFMPNLLLNPINNVDIYPLLARLLGIAMAPNDGNPRALLQALRTSNTANGYTYSKRNALHLEHHHHHH”, the protein production was “failed”. In the case of “MMIHMEYYLVVSTIMMFAGIYGFFTRRNTLAILISVELMLNATDINFAVFNRFLFPGELEGYFFALFSIAISAAETAIAIAIMINIYRNIRSIQVKNLDELKW”, the protein production is reported as “failed”. For “MMIKASTNEFRFCFKQMNKSQHELVLGWIHQPHINEWLHGDGLSNTIKDLHEFLNDGKPWATHWIAYDNEIPFAYLITSEIEKSEEYPDGAVTLDLFICRLDYIGKGLSVQMIHEFILSQFSDTKIVLINPEISNERAVHVYKKAGFEIIGEFIASWHPVPHYKMKLCIEDLKKQRLSA”, the protein production was “not failed”. For “MMIVDPKYCSLHPVDLAIVRKVLKITDGNFVITNAEGNLLFKVKDPFFSLHEKRILMDGFGTKVLTLKGKIMTMHDRWLVFRGGSTEEVDLLYTVKRSNMVQITTKLDVFLADNIEQKKCDYRLEGVWLETSCFVYAGDSDIILAQMREKKTMQSVLFGKDNFCLTVNPNVDYAFIASLIVILFHQKDDIYPIESLWKRDITDFIC”, the protein production was “failed”. For “MMKAYQREFIEFALEKQVLKFGEFTLKSGRKSPYFFNAGLFNTGRDLARLGRFYAAALVDSGIEFDVLFGPAYKGIPIATTTAVALADHHDVDTPYCFNRKEAKNHGEGGNLVGSKLEGRVMLVDDVITAGTAIRESMELIQANKADLAGVLVAIDRQEKGKGELSAIQEVERDFGCAVISIVSLTDLITYLEQQGNNTEHLEAVKAYRAQYGI”, the protein production was “not failed”. For “MMKETQQWTSKIGFVLAAAGAAVGLGAIWKFPYVAGNGGGGAFFLVFLLLTLFIGMPLLIAEFVIGRSTQKEAVTAYKVLVPNSKLYPWIGRMGVVTCFSVLSFYSVVGGWILLYLYYSVTGSFWNGAADYGQLFGETISNPLSAIGAQFIFMLCTIFVVSKGVEKGIEKASKYMMPLLFILFIAIIVRALTLDGAFAGVEFFLKPDFSKLTADTILYAMGQSFFSLTVGASVMVTYSSYLKKEEHLAKSATSIVSLTVFVTVLAGLAIFPAIFALGVKPTEGPGLLFIVLPAVFAKIPFGQFFFIMFLILFFFATLTSAISMLEIVVASVAKGNEKKRPSASLLIGILIFAVGIPSALSFGIMSDVKIFGKTFFDLVDFSVSNVLLPLGVLAISLFVPNKMSKELLMKELEVTETKGKTLFNIWFFLLRYVIPVTVIIVFLNAIGVFKMFA”, the protein production was “failed”. In the case of “MMKILGLIGGMSWESTIPYYRMINQHVKAQLGGLHSAKIILYSVDFHEIEQLQAKGDWQTAAQLLSNAAISLKHAGAEVIVVCTNTMHKVADDIEAACGLPLLHIADATAVQIKQQGIDKIGLLGTRYTMEQGFYRGRLTEKHGIEVITPDDTDREAVNRIIYEELCLGIISETSRDAYRRVIKKLEAQGVQGIIFGCTEITLLVNAQDASVPVFDTTAIHASAAADYALQ”, the protein production is reported as “not failed”. For “MMKKAGLYIHIPFCLQKCNYCDFFSVRAGRFKNILSGHLSPFVLRLAEDIKIQADKYSINEWDTVYIGGGTPSLLSPDDLYYLSSQIPAAQKNPHREFTVEINPEDLTKDFLSAAVSGGINRFSVGIQSLNDEVLSACKRRGCRKMSLSALELLRSQKGLILSCDLIAGLNKQSLGILKDDIQTLLHFKPEHFSLYALCSNTKLPPEKDDEIAELWSYGKDILEKNSYNKYEVSNFSYKNLYKSIHNEKYWRLEDYIGVGPGAFGSIFFDRKVLHANAHANALRFSAIKNIEKWMTLKNRDEVYEYETIDEKEFIEEAFMMGLRLTEGIDRSFFKSRFGKDISVFAGKTISKWLDRNEAVLTEKRFYLTEKGFLYLNLFLQELFQEIDSLF”, the protein production was “failed”. For “MMKKHMYRLGLFKALTLALLVLLSAFVPSVLANQSRKPANLDGTTTLQSILSSSHRSEENRQRDKYRHPTQTLSFFGLRPDMTVVELWPGSGWYTEILAPYLAAKGQLIVTNFAPNDSKIPTVVFQQKLATAFQQKLEANKEVFGKIRVALINPPQELTLAPDNSVDMVVTFRNIHNWVNAGYAEQVYAAAYKALKPGGILGVEEHRAKPGISLQESIKTGYMSEDGVIAAVEKVGFKLVGKSEINANPQDTKDYPGGVWALPPTLRQGQKDRQRLVAIGESDRMTLKFIKPEANINSGSNAK”, the protein production was “failed”. With “MMKMDLKKEVKEEFIRFQRNEKTESIVYERLASIEKDESNRKVLRLISAEEKAHYATLKKYTETDVAPDKLRIAKYYWLARILGITFAIKLMESSEENAHHDYAKYTDYPDLRQLANEEEVHEQKLIGLINEERLEYMGSVVLGLNDALVEFTGALAGFTLALSDSRLIALTGSITGIAAALSMASSEYLSTKSEGGETKHPIKAAIYTGIAYIITVVALVAPFILIENVLIALGVMLAMALVIIALFNYYYSVARGESFRKRFTEMAVLSFSVAGISFLIGYALKTFTGIDA” the protein production was “failed”.
